# Measurements taken from article PMC3792970, “A Single Nucleotide Polymorphism Associated with Hepatitis C Virus Infections Located in the Distal Region of the IL28B Promoter Influences NF-κB-Mediated Gene Transcription”.
# Numbering of substitutions follows the chain as printed.
# B1: G-T (NF813G-T) (dsDNA)
# DNA 1: CCCCTGCCCTCAGTGGGCAGCCTCTGCATTCCCTCAGCTCCCTTTCTCTCTGTGA
# DNA 2: TCACAGAGAGAAAGGGAGCTGAGGGAATGCAGAGGCTGCCCACTGAGGGCAGGGG
# B2: C-C (NFC-C849) (dsDNA)
# DNA 1: B1 DNA 1 with G26C, T30C
# DNA 2: B1 DNA 2 with A26G, C30G
# Columns and labels:
# [1] = biological target: T1, NF-kB p50 (UniProt P19838 42-367); assay: EMSA; 2 ug p50; diffuse shift; EMSA: 1X BB stated as 50 mM Tris pH 8.0, 250 mM KCl, 2.5 mM EDTA, 0.5% Triton X-100, 62.5% glycerol, 1 mM DTT; 1 ug poly(dI:dC), 10 ul, room temperature 30 min, 4% native PAGE at 4 C; pull-down: 1X BB, poly(dI:dC), RT 2 h; settings: protein: recombinant; chain copies: 2; label: 5'-32P on forward strand (EMSA); biotin (pull-down); blunt
# [2] = biological target: T1, NF-kB p50; assay: EMSA; 2 ug p50; distinct bands; EMSA: 1X BB stated as 50 mM Tris pH 8.0, 250 mM KCl, 2.5 mM EDTA, 0.5% Triton X-100, 62.5% glycerol, 1 mM DTT; 1 ug poly(dI:dC), 10 ul, room temperature 30 min, 4% native PAGE at 4 C; pull-down: 1X BB, poly(dI:dC), RT 2 h; settings: protein: recombinant; chain copies: 2; label: 5'-32P on forward strand (EMSA); biotin (pull-down); blunt
# T1 sequence (P19838 42-367): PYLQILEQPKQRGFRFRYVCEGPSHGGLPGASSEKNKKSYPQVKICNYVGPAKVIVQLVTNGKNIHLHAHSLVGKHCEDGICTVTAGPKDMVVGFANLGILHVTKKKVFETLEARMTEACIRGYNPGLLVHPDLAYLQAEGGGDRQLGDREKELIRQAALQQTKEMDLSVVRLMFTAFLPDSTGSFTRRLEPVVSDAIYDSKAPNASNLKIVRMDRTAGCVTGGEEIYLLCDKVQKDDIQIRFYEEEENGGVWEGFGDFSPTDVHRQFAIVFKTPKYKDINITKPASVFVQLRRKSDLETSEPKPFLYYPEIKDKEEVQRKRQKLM
Binder,binding result [1],binding result [2]
B1,binds,–
B2,–,binds
